Laboratory results as given in patent US20260098102A1 (NATIONAL UNIVERSITY CORPORATION KOBE UNIVERSITY, published 2026).
Like-named read-outs stand apart in the source and are kept apart here.

Legend:
SIRPA_V1_IgV = target: T1, SIRPA_V1_IgV (human, UniProt P78324 31-149); assay: SPR Biacore T200, antibody captured, SIRPA_V1_IgV as analyte, 1:1 model
T1 construct: Secreted recombinant protein from FreeStyle 293F cells
Protocol: The dissociation constants of the cD13, cF44, and cF63 prepared in Example 4 against the human SIRPA_V1_IgV prepared in Example 1 were determined by a capture method comprising capturing a human chimeric antibody as a ligand and measuring an antigen as an analyte, using Biacore T200 (GE Healthcare Bioscience Corp.). HBS-EP+ (GE Healthcare Bioscience Corp.) was used as a running buffer, and CM5 (GE Healthcare Bioscience Corp.) was used as a sensor chip. In an amount of 1 μg/mL human chimeric antibody was added onto a chip at a rate of 10 μL/min for 60 seconds, a serially diluted solution of human SIRPA protein as an antigen (0.5 to 8 μg/mL) was added at a flow rate of 30 μL/min for 120 seconds, and the dissociation phase continued to be monitored for 600 seconds. As a regenerant, 3 M magnesium chloride (GE Healthcare Bioscience Corp.) was added at a flow rate of 20 μL/min for 30 seconds. For data analysis, the binding rate constant (ka), dissociation rate constant (kd), and dissociation constant (KD; KD=kd/ka) were calculated using a 1:1 binding model.

human SIRPA_V1 protein [1] = target: T2, human SIRPA_V1 protein (human, UniProt P78324 31-504); assay: blocking cell-based ELISA: peroxidase-labeled CD47-Fc (10,000 ng/mL) on 293α cells expressing SIRPA_V1; y axis = CD47-Fc signal in % of no antibody [i]
T2 construct: Expressed on 293α cells from pcDNA3.2 V5-DEST or pFLAG V5-DEST (FLAG-tagged) vectors; also called human SIRPA Variant 1; hSIRPA V1
Protocol: (§1) After the culture supernatant of the human SIRPA and monkey SIRPA expression vector-introduced 293α cells prepared in Examples 5)-1 and 5)-2, respectively, was removed, 50 μL per well of cD13 (IgG2 and IgG4pf), cF44 (four different constant regions IgG1, IgG2, IgG4p, and IgG4pf), and cF63 (IgG2 and IgG4pf) diluted with 5% FBS-containing PBS to final concentrations of 0 to 10,000 ng/mL were added to each of pcDNA3.2 V5-DEST-SIRPA_V1, pcDNA3.2 V5-DEST-monkey SIRPA, and pcDNA3.2 V5-DEST-introduced 293α cells, immediately followed by addition of 50 μL per well of peroxidase-labeled CD47-Fc prepared in 5% FBS-containing PBS at a final concentration of 10,000 ng/ml, and the mixture was allowed to stand at 4° C. for one hour. Thereafter, the SIRPA-CD47 binding inhibitory activity was evaluated in the same manner as in 1)-6-3.

monkey SIRPA protein = target: T3, monkey SIRPA protein (cynomolgus monkey, UniProt P78324 31-504 (human entry)); assay: cell-based ELISA on 293α cells expressing FLAG-tagged monkey SIRPA; Abs 490 normalized to FLAG tag
T3 construct: Expressed on 293α cells from pcDNA3.2 V5-DEST or pFLAG V5-DEST vectors; also called cynomolgus monkey SIRPA; cSIRPA
T3 chain: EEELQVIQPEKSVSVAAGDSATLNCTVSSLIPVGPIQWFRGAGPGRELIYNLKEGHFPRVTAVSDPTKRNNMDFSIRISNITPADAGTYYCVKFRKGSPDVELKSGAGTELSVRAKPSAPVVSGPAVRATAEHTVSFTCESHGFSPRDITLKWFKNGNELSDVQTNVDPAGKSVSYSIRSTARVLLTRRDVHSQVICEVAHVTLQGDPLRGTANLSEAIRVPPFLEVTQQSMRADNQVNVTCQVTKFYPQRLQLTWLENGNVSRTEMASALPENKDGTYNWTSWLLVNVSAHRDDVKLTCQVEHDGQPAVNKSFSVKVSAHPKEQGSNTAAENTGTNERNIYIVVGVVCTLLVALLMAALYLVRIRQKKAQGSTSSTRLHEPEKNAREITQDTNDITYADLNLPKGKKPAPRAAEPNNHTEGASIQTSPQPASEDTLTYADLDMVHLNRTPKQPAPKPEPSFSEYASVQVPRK

human SIRPA_V1 protein [2] = target: T2, human SIRPA_V1 protein; assay: cell-based ELISA on 293α cells expressing FLAG-tagged SIRPA_V1; Abs 490 normalized to FLAG tag
Protocol: (§2) The 293α cells [described in Example 1)-6] were prepared in a 10% FBS-containing DMEM medium to 5×10⁵ cells/mL. pFLAG V5-DEST-SIRPA_V1, pFLAG V5-DEST-SIRPA_V2, or pFLAG V5-DEST was introduced into the cells using Lipofectamine LTX (Invitrogen), followed by addition of 100 μL per well to a 96-well plate (Corning Incorporated), and cells were cultured overnight in the 10% FBS-containing DMEM medium at 37° C. under a 5% CO₂ condition. The obtained introduced cells were used for cell-based ELISA in a state that they adhered to each other. After the culture supernatant was removed, 50 μL per well of the cD13 (IgG2 and IgG4pf), cF44 (IgG1, IgG2, IgG4p, and IgG4pf), and cF63 (IgG2 and IgG4pf) antibodies prepared in Examples 3 and 4 were added to each of pFLAG V5-DEST-SIRPA_V1, pFLAG V5-DEST-SIRPA_V2, or pFLAG V5-DEST-introduced cells at final concentrations of 0 to 10,000 ng/mL, and the mixture was allowed to stand at 4° C. for one hour. Further, 50 μL per well of anti-FLAG M2 antibody (SIGMA) diluted with 5% FBS-containing PBS to a final concentration of 10,000 ng/mL was added to a well for detecting expression of each SIRPA construct, and the mixture was allowed to stand at 4° C. for one hour. The cells in the well were washed once with 5% FBS-containing PBS, followed by addition of Peroxidase AffiniPure F(ab′)₂ Fragment Goat Anti-Human IgG, Fcγ Fragment Specific (Jackson ImmunoResearch) diluted 1000-fold with 5% FBS-containing PBS, and the mixture was allowed to stand at 4° C. for one hour. The cells in the well were washed five times with 5% FBS-containing PBS, followed by addition of 100 μL per well of an OPD coloration solution [o-phenylenediamine dihydrochloride (Wako Pure Chemical Industries, Ltd.) and H₂O₂ were dissolved in an OPD solution (0.05 M trisodium citrate, 0.1 M disodium hydrogen phosphate dodecahydrate, pH 4.5) at 0.4 mg/mL and 0.6% (v/v), respectively]. A coloration reaction was performed with stirring occasionally, 100 μL per well of 1 M HCl was added to terminate the coloration reaction, and then absorbance at 490 nm was measured with a plate reader ARVO (PerkinElmer Inc.). Binding of the human chimeric anti-human SIRPA antibodies to each construct was standardized by expression of the FLAG tag.
Target sequence in this assay (P78324 31-504 limits assumed): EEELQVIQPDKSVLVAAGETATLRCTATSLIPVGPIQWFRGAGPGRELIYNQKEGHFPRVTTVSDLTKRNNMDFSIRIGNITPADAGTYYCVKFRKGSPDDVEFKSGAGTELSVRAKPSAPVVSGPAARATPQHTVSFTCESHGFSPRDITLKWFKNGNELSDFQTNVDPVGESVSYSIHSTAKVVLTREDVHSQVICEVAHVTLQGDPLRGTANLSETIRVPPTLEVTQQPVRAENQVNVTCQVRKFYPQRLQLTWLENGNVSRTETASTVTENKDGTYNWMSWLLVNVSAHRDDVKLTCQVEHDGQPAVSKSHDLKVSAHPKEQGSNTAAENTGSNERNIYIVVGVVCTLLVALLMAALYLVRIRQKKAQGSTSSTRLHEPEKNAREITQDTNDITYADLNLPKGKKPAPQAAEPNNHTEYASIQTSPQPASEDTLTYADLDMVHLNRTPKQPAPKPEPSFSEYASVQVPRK

human SIRPA_V2 protein [3] = target: T4, human SIRPA_V2 protein (human, UniProt P78324 31-504); assay: blocking cell-based ELISA: peroxidase-labeled CD47-Fc (10,000 ng/mL) on 293α cells expressing SIRPA_V2; y axis = CD47-Fc signal in % of no antibody [ii]
T4 construct: Expressed on 293α cells from pcDNA3.2 V5-DEST or pFLAG V5-DEST (FLAG-tagged) vectors; also called human SIRPA Variant 2; ECD variant (full-length, amino acids 1 to 504)

human SIRPA_V2 protein [4] = target: T4, human SIRPA_V2 protein; assay: as above; remark: listed apart in the source
Target sequence in this assay (P78324 other isoform, or with tags, fused parts or gaps limits assumed): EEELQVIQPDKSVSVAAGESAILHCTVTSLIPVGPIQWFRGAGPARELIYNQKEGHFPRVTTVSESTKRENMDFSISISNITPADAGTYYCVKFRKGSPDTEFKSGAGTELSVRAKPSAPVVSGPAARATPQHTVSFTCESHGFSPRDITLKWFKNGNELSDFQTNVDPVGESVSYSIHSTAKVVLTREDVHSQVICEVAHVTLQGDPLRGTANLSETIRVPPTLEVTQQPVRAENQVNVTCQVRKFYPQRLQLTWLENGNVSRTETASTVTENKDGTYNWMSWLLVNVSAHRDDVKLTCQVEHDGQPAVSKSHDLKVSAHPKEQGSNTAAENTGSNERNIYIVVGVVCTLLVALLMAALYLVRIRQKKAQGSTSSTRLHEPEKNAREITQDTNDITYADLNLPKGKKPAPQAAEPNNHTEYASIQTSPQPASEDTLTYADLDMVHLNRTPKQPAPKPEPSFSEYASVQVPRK

human SIRPA_V1 protein [5] = target: T2, human SIRPA_V1 protein; assay: blocking cell-based ELISA: peroxidase-labeled CD47-Fc (10,000 ng/mL) on 293α cells expressing SIRPA_V1; y axis = CD47-Fc signal in % of no antibody [i]; remark: listed apart in the source
Protocol: as §1
Target sequence in this assay (P78324 31-504 limits assumed): as the sequence (P78324 31-504 limits assumed) above

human SIRPA_V2 protein [6] = target: T4, human SIRPA_V2 protein; assay: cell-based ELISA on 293α cells expressing FLAG-tagged SIRPA_V2; Abs 490 normalized to FLAG tag
Protocol: as §2

T1 sequence (P78324 other isoform, or with tags, fused parts or gaps limits assumed): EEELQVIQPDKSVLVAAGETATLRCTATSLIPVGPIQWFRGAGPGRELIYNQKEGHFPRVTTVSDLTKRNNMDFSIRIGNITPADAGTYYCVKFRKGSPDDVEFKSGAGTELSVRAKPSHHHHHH

B1: human chimeric anti-SIRPA antibody cF63 (antibody, human IgG4 S228P, lambda, F234A L235A, V domains shown)
VH: QVQLKESGPGLVQPSETLSLTCTVSGFSLASYSLSWVRQPSGKGPEWMGRMYYDGDTAYNSALKSRLSISRDTSKNQVFLKMNSLQTDDTGTYYCTRDRSMFGTDYPHWYFDFWGPGTMVTVSS
VL: QFTLTQPKSVSGALRSTITIPCERSSGDIGDSYVSWYQRHLGRPPINVIYADDQRPSEVSDRFSGSIDSSSNSASLTITNLQMDDEADYFCQSYDSKIDIFGGGTKLTVLG
notes: Human IgG4proFALA heavy chain, human lambda light chain; also called cF63 (IgG4pf); human chimeric antibody F63
Q: Which results are given for B1?
A: Kd (SIRPA_V1_IgV): 0.166 nM; IC50 (read off the curve) (human SIRPA_V1 protein [1]): ~0.1 mg/L; EC50 (read off the curve) (monkey SIRPA protein): ~0.09 mg/L; EC50 (read off the curve) (human SIRPA_V1 protein [2]): ~0.05 mg/L; IC50 (read off the curve) (human SIRPA_V2 protein [3]): ~0.2 mg/L

B2: human chimeric anti-SIRPA antibody cF44 (antibody, human IgG4 S228P, kappa, F234A L235A, V domains shown)
VH: EVQLVESGGGLVQPGRSLKLSCAASGFTFSNYYMAWVRQAPTKGLEWVTYITTGGGSTYFRDSVKGRFTISRDNAESTLYLQMDSLRSEDTATYYCTAANYGGSYFDYWGQGVMVTVSS
VL: DVQMTQSPSNLAASPGESVSINCKASKSISKYLAWYQQKPGKANKLLIYSGSTLQSGTPSRFSGSGSGTDFTLTIRNLEPEDFGLYYCQQHNEYPPTFGAGTKLELKR
notes: Human IgG4proFALA heavy chain, human kappa light chain; also called cF44 (IgG4pf); human chimeric antibody F44
Q: What does the source list for B2?
A: Kd (SIRPA_V1_IgV): 1.72 nM; IC50 (read off the curve) (human SIRPA_V1 protein [1]): ~0.6 mg/L; EC50 (read off the curve) (monkey SIRPA protein): ~0.08 mg/L; IC50 (read off the curve) (human SIRPA_V2 protein [4]): ~0.4 mg/L; IC50 (read off the curve) (human SIRPA_V1 protein [5]): ~0.6 mg/L; EC50 (read off the curve) (human SIRPA_V1 protein [2]): ~0.05 mg/L; EC50 (read off the curve) (human SIRPA_V2 protein [6]): ~0.05 mg/L; IC50 (read off the curve) (human SIRPA_V2 protein [3]): ~0.4 mg/L
